B1: NRC3_random_hg19_98_o1 (dsDNA)
DNA 1: GCGCCAGGCTGGTCTCGACCTCCTGACTTTGTGATCGCGATTGACAGCGTAGAATGAAGG
DNA 2: CCTTCATTCTACGCTGTCAATCGCGATCACAAAGTCAGGAGGTCGAGACCAGCCTGGCGC
B2: NRC3_random_hg19_407_o1 (dsDNA)
DNA 1: GCGAGACATGAGATTTGGTTCTAGCTACACTCTTCAGCGATTGACAGCGTAGAATGAAGG
DNA 2: CCTTCATTCTACGCTGTCAATCGCTGAAGAGTGTAGCTAGAACCAAATCTCATGTCTCGC
B3: NRC3_random_hg19_242_o1 (dsDNA)
DNA 1: GCCAGCAGAGAACCCAGTGGAACATGAGCCTATACAGCGATTGACAGCGTAGAATGAAGG
DNA 2: CCTTCATTCTACGCTGTCAATCGCTGTATAGGCTCATGTTCCACTGGGTTCTCTGCTGGC
B4: NRC3_random_hg19_259_o1 (dsDNA)
DNA 1: GCCCTGAGTCAGTAGAACCAGCTGAGAGATTGGATTGCGATTGACAGCGTAGAATGAAGG
DNA 2: CCTTCATTCTACGCTGTCAATCGCAATCCAATCTCTCAGCTGGTTCTACTGACTCAGGGC
B5: NRC3_wobSeed120_DR4_G20C_o1 (dsDNA)
DNA 1: GCCCGAGTAGGTTACGAGGCGGCATTCAGTGCGAATGCGATTGACAGCGTAGAATGAAGG
DNA 2: CCTTCATTCTACGCTGTCAATCGCATTCGCACTGAATGCCGCCTCGTAACCTACTCGGGC
B6: NRC3_random_hg19_288_o1 (dsDNA)
DNA 1: GCCCTGGTTCAAGCGATTCTCCTGCCTCAGCCTCCTGCGATTGACAGCGTAGAATGAAGG
DNA 2: CCTTCATTCTACGCTGTCAATCGCAGGAGGCTGAGGCAGGAGAATCGCTTGAACCAGGGC
B7: NRC3_wobSeed111_DR4_G11A_o1 (dsDNA)
DNA 1: GCCGAACTAGATCAGAACAGGACAGTGAAGGATGATGCGATTGACAGCGTAGAATGAAGG
DNA 2: CCTTCATTCTACGCTGTCAATCGCATCATCCTTCACTGTCCTGTTCTGATCTAGTTCGGC
B8: NRC3_random_hg19_446_o1 (dsDNA)
DNA 1: GCACTGAACAACCTGATCCTGAATGACTACAGGGTAGCGATTGACAGCGTAGAATGAAGG
DNA 2: CCTTCATTCTACGCTGTCAATCGCTACCCTGTAGTCATTCAGGATCAGGTTGTTCAGTGC
B9: NRC3_wobSeed27_DR1_G18A_o1 (dsDNA)
DNA 1: GCACTCGGAGGACAAAGATCAGAGCTACGCCAGTGAGCGATTGACAGCGTAGAATGAAGG
DNA 2: CCTTCATTCTACGCTGTCAATCGCTCACTGGCGTAGCTCTGATCTTTGTCCTCCGAGTGC
B10: NRC3_wobSeed15_DR0_C13A_o1 (dsDNA)
DNA 1: GCCGAACTAGGTAAAGGACAGTGAATCTCCGCACGCGCGATTGACAGCGTAGAATGAAGG
DNA 2: CCTTCATTCTACGCTGTCAATCGCGCGTGCGGAGATTCACTGTCCTTTACCTAGTTCGGC
B11: NRC3_wobSeed17_DR0_G16A_o1 (dsDNA)
DNA 1: GCATATGTAGGTTAGAGTCATTCAGAAAGTAGGGAAGCGATTGACAGCGTAGAATGAAGG
DNA 2: CCTTCATTCTACGCTGTCAATCGCTTCCCTACTTTCTGAATGACTCTAACCTACATATGC
B12: NRC3_random_hg19_48_o1 (dsDNA)
DNA 1: GCTAGTCCAGCTGGCTGGAGACTCATGGAAGAACAGGCGATTGACAGCGTAGAATGAAGG
DNA 2: CCTTCATTCTACGCTGTCAATCGCCTGTTCTTCCATGAGTCTCCAGCCAGCTGGACTAGC
B13: NRC3_wobSeed119_DR4_A9T_o1 (dsDNA)
DNA 1: GCGGAACGTGGGCATTCGAGTTGATAGCATGGCGATGCGATTGACAGCGTAGAATGAAGG
DNA 2: CCTTCATTCTACGCTGTCAATCGCATCGCCATGCTATCAACTCGAATGCCCACGTTCCGC
B14: NRC3_random_hg19_82_o1 (dsDNA)
DNA 1: GCCATACAGACTCTAGTCATTTCAAATGTTCTTGCTGCGATTGACAGCGTAGAATGAAGG
DNA 2: CCTTCATTCTACGCTGTCAATCGCAGCAAGAACATTTGAAATGACTAGAGTCTGTATGGC
B15: NRC3_wobSeed102_DR4_G21A_o1 (dsDNA)
DNA 1: GCCCTAGCAGGCCAATCTGGATCACTCAAGGCTTGAGCGATTGACAGCGTAGAATGAAGG
DNA 2: CCTTCATTCTACGCTGTCAATCGCTCAAGCCTTGAGTGATCCAGATTGGCCTGCTAGGGC
B16: NRC3_random_hg19_166_o1 (dsDNA)
DNA 1: GCAATGACATGATCATAGCTCACTGCAGCCTTGAATGCGATTGACAGCGTAGAATGAAGG
DNA 2: CCTTCATTCTACGCTGTCAATCGCATTCAAGGCTGCAGTGAGCTATGATCATGTCATTGC
B17: NRC3_random_hg19_264_o1 (dsDNA)
DNA 1: GCTCATCAGTCTAATGATGCTGTTGGTCCAGGGAGCGCGATTGACAGCGTAGAATGAAGG
DNA 2: CCTTCATTCTACGCTGTCAATCGCGCTCCCTGGACCAACAGCATCATTAGACTGATGAGC
B18: NRC3_random_hg19_26_o1 (dsDNA)
DNA 1: GCACTCAATACACCAAAGCACATCCTCATCAGACTCGCGATTGACAGCGTAGAATGAAGG
DNA 2: CCTTCATTCTACGCTGTCAATCGCGAGTCTGATGAGGATGTGCTTTGGTGTATTGAGTGC
B19: NRC3_wobSeed42_DR1_G9T_o1 (dsDNA)
DNA 1: GCTATACATGGTCAAAGGCCAGAGTACGAATGTCGAGCGATTGACAGCGTAGAATGAAGG
DNA 2: CCTTCATTCTACGCTGTCAATCGCTCGACATTCGTACTCTGGCCTTTGACCATGTATAGC
B20: NRC3_random_hg19_8_o1 (dsDNA)
DNA 1: GCGCTGAAACTGGATCCCTTCCTTACACCTTACACAGCGATTGACAGCGTAGAATGAAGG
DNA 2: CCTTCATTCTACGCTGTCAATCGCTGTGTAAGGTGTAAGGAAGGGATCCAGTTTCAGCGC
B21: NRC3_wobSeed112_DR4_G11C_o1 (dsDNA)
DNA 1: GCTAGCCTAGCTCAGATCGGGCCAGTATACGCTATAGCGATTGACAGCGTAGAATGAAGG
DNA 2: CCTTCATTCTACGCTGTCAATCGCTATAGCGTATACTGGCCCGATCTGAGCTAGGCTAGC
B22: NRC3_wobSeed103_DR4_G21A_o1 (dsDNA)
DNA 1: GCGCATATAGGTAATACAAGATGAAAGTCCGATTGTGCGATTGACAGCGTAGAATGAAGG
DNA 2: CCTTCATTCTACGCTGTCAATCGCACAATCGGACTTTCATCTTGTATTACCTATATGCGC
B23: NRC3_random_hg19_78_o1 (dsDNA)
DNA 1: GCTATGACTGGTTACACTGGAAACCTAGAATGAACAGCGATTGACAGCGTAGAATGAAGG
DNA 2: CCTTCATTCTACGCTGTCAATCGCTGTTCATTCTAGGTTTCCAGTGTAACCAGTCATAGC

Molecular target: THRa:RXRa (Homo sapiens, UniProt P10827;P19793 full;full)
Assay: no ligand; PBM; 90 nM : 90 nM RXRa; PBS pH 7.4, 2% milk, 0.02% Triton X-100, 1 mM DTT, BSA, 0.4 mg/ml salmon testes DNA
Conditions: tags: His kept;His cleaved; copies: 1;1; label: surface-attached array probe

Sequence of THRa:RXRa (P10827 other isoform, or with tags, fused parts or gaps, chain 1 of 2): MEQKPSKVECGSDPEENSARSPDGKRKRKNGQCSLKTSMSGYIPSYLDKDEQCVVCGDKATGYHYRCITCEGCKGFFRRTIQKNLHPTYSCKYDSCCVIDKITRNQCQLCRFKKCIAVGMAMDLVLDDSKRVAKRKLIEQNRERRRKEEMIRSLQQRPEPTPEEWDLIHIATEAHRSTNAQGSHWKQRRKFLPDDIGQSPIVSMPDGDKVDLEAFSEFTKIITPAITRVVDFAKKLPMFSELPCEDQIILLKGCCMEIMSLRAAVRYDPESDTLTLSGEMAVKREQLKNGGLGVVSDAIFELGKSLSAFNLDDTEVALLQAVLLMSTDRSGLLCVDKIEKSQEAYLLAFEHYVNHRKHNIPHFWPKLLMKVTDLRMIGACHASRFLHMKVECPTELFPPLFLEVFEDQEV
Sequence of THRa:RXRa (P19793 whole entry, chain 2 of 2): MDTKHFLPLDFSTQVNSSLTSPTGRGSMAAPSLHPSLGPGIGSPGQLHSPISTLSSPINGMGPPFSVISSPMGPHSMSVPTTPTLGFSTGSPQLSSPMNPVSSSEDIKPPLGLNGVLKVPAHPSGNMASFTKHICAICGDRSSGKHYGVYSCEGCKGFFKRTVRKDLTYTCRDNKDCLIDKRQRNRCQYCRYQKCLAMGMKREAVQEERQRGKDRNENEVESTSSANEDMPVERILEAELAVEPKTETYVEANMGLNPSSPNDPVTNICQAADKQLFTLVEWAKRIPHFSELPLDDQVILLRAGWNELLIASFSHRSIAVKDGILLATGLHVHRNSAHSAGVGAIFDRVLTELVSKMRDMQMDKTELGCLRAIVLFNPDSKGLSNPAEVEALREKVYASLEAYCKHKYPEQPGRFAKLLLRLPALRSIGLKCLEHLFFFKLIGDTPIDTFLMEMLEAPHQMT

Question: For B1, which binding signal is on record?
Answer: The binding signal was -0.14 PBM z-score against 500 random probes.

Question: How did the binding signal turn out when B2 was run?
Answer: Its binding signal is -0.37 PBM z-score against 500 random probes.

Question: For B3, which binding signal is on record?
Answer: The binding signal was -0.39 PBM z-score against 500 random probes.

Question: With B4 as the binder, how does the binding signal read?
Answer: Its binding signal is -0.45 PBM z-score against 500 random probes.

Question: With B5 as the binder, how does the binding signal read?
Answer: The binding signal was -0.27 PBM z-score against 500 random probes.

Question: How did the binding signal turn out when B6 was run?
Answer: Its binding signal is 0.5 PBM z-score against 500 random probes.

Question: For B7, which binding signal is on record?
Answer: The binding signal was 0.34 PBM z-score against 500 random probes.

Question: With B8 as the binder, how does the binding signal read?
Answer: Its binding signal is 0.09 PBM z-score against 500 random probes.

Question: With B9 as the binder, how does the binding signal read?
Answer: The binding signal was 0.36 PBM z-score against 500 random probes.

Question: With B10 as the binder, how does the binding signal read?
Answer: The binding signal was 0.15 PBM z-score against 500 random probes.

Question: Which binding signal does the source give for B11 here?
Answer: Its binding signal is 0.23 PBM z-score against 500 random probes.

Question: Which binding signal does the source give for B12 here?
Answer: The binding signal was -1.43 PBM z-score against 500 random probes.

Question: How did the binding signal turn out when B13 was run?
Answer: The binding signal was 0.25 PBM z-score against 500 random probes.

Question: With B14 as the binder, how does the binding signal read?
Answer: Its binding signal is 0.12 PBM z-score against 500 random probes.

Question: For B15, which binding signal is on record?
Answer: Its binding signal is 0.26 PBM z-score against 500 random probes.

Question: B16 was tested. Which binding signal did it give?
Answer: The binding signal was -0.62 PBM z-score against 500 random probes.

Question: With B17 as the binder, how does the binding signal read?
Answer: Its binding signal is -0.53 PBM z-score against 500 random probes.

Question: For B18, which binding signal is on record?
Answer: Its binding signal is 0.33 PBM z-score against 500 random probes.

Question: Which binding signal does the source give for B19 here?
Answer: Its binding signal is 0.08 PBM z-score against 500 random probes.

Question: Which binding signal does the source give for B20 here?
Answer: The binding signal was -0.12 PBM z-score against 500 random probes.

Question: How did the binding signal turn out when B21 was run?
Answer: Its binding signal is -0.54 PBM z-score against 500 random probes.

Question: With B22 as the binder, how does the binding signal read?
Answer: Its binding signal is 0.11 PBM z-score against 500 random probes.

Question: How did the binding signal turn out when B23 was run?
Answer: The binding signal was 0.42 PBM z-score against 500 random probes.

Reference: PMC6555819, “Comprehensive study of nuclear receptor DNA binding provides a revised framework for understanding receptor specificity”
